Earlier results as cited in paper PMC3204931.

Target: Rac2 (Homo sapiens) (UniProt P15153)

## PLD2 (from UniProt O14939)
  Kd: 10 nM
